Assay results taken from PMC7884431.

Key:
[1] = system: RFL79 (Rf1) (Triticum aestivum (accession R197 for the cloned gene; source of the REMSA construct not stated)); experiment: EMSA; details: apparent Kd; protein mostly aggregated; 1 nM probe; Binding buffer 1x THE (34 mM Tris, 66 mM HEPES, 0.1 mM EDTA, pH 8), 0.2 M NaCl, 5 mM DTT, 5 mg/mL heparin, 0.1 mg/mL BSA, RNaseOUT (10 uL) + 5 uL protein in …
[2] = system: RFL29a (Rf3) (Triticum aestivum (accession R0934F for the cloned gene; source of the REMSA construct not stated)); experiment: EMSA; details: apparent Kd; protein mostly aggregated; 1 nM probe; Binding buffer 1x THE (34 mM Tris, 66 mM HEPES, 0.1 mM EDTA, pH 8), 0.2 M NaCl, 5 mM DTT, 5 mg/mL heparin, 0.1 mg/mL BSA, RNaseOUT (10 uL) + 5 uL protein in …

Sequence | Kd [1] [µM] | Kd [2] [µM]
CUGUAAAUCAAGAAUUCCUCGAAGA [BS RFL79 (orf279)] | 1 | 
CUUCACCUGUGCACUUAUUUAUGUAU [BS RFL29a (orf279)] |  | 1
